The source of these data is patent US20230226096A1 (Orna Therapeutics, Inc., priority 2020, published 2023).

The series has as its system HEK293 cells. The format is cell-based, human. The conditions noted are these: luminescence from secreted Gluc in supernatant 24 hours after transfection of HEK293 cells; circular RNA encoding Gluc with the named IRES (UTR truncated to 675 nt).

B1: Human pegivirus isolate JD2B1I (nucleic acid, listed as Pegivirus sp.)
DNA: TCAGGGTTGGTAGGTCGTAAATCCCGGTCACCTTGGTAGCCACTATAGGTGGGTCTTAAGAGAAGGTTAAGATTCCTCTTGTGCCTGCGGCGAGACCGCGCACGGTCCACAGGTGTTGGCCCTACCGGTGGGAATAAGGGCCCGACGTCAGGCTCGTCGTTAAACCGAGCCCGTCACCCACCTGGGCAAACGACGCCCACGTACGGTCCACGTCGCCCTTCA
As for B1, the Expression was 6.85E+05.

B2: Rosavirus C NFSM6F (nucleic acid)
DNA: CAGGGAGATCTCCATGAATAATCTTTTCCACCCTCTTTAGCGTCTATGCTATTGAGGACGGGTTGGAGCCCCGTTGACCCAGCGTCAGAGTGTGTCGGTAGCAGGCTTTCTGCTCTCGCCCCATGCCGGCCACACCTCCCATTAGTGATGTGAAGGTTGTAAGTTACATGTGAAAAGGTTTCTAATAATTGAGCTGAATGTAGCGATTACCTAAGGTGAGCGGATTCCCCCACGTGGTAACACGTGCCTCTCAGGCCAAAAGCCAAGGTGTTAAAAGCACCCCTTAGGTAGGCCACTACCCCGTGGCCTCAGTTCTCTTAGAAGATTCACTTAGTAGTGTGTGCACTGGCAACTCTTAAGCAGAGCTAGTGAGTGGGCTAAGGATGCCCTGAAGGTACCCGCAGGTAACGTTAAGACACTGTGGATCTGATCAGGGGCTCGAGTGCTGAAGCTTTACAGAGGTAGCTCGAGTTAAAAAACGTCTATGCCCCTCCCCCACGGGAGTGGGGGTTCCCCCACACCAATTTTAGATTGCACT
modifications: Rosavirus C
B2 came in with an Expression of 6.84E+05.

B3: GB virus C/Hepatitis G virus (nucleic acid)
DNA: CCCCCGGCACTGGGTGCAAGCCCCAGAAACCGACGCCTATCTAAGTAGACGCAATGACTCGGCGCCGACTCGGCGACCGGCCAAAAGGTGGTGGATGGGTGATGACAGGGTTGGTAGGTCGTAAATCCCGGTCACCTTGGTAGCCACTATAGGTGGGTCTTAAGAGAAGGTTAAGATTCCTCTTGTGCCTGCGGCGAGACCGCGCACGGTCCACAGGTGTTGGCCCTACCGGTGGGAATAAGGGCCCGACGTCAGGCTCGTCGTTAAACCGAGCCCGTTACCCACCTGGGCAAACGACGCCCACGTACGGTCCACGTCGCCCTTCAATGTCTCTCTTGACCAATAGGCGTAGCCGGCGAGTTGACAAGGACCAGTGGGGGCCGGGGGCTTGGAGAGGGACTCCAAGTCCCGCCCTTCCCGGTGGGCCGGGAAATGC
Take B3: the Expression worked out at 1.36E+05.

B4: Theiler's disease-associated virus (nucleic acid)
DNA: TGATACCGTGTCCCGGTACGACCTCGCGCGTCCCCAAGCTCGCCCTGAGGGGGGAGCGTAAGGGCGCGTAGTGGGGTAGCCCCCCAAACCGAGCCACCCTAGTGAGTGACTTTAGAATGGTTAGGGAGACTACCGCCTTCGCTGTTTGGGGACCTAATGATCCGCGTGCCAGGGTTCTTCGGGTAAATCCCGGCGCGGTGTTTTGGGTTCAGGGCAGTAGGGGCAGACGGGCCAGCAGTCGCTGGTTCCTGGTACCACCACCCTATCCGGACGACCTCCCTCACGAAAGGTCGCCACGGTCTGTGGCTCGACGACGCCTATAATTCAGTCCGAGGGGCGCAGCCCTCGTTAAACTTAGGCAAGGTTCCTCGCCATTGATTTGGCCAGGGGTTTAAGTGAACGCCGCCCTTTTAATGTTTAATAGGGTTCTTTCCCGGCGGGTTGACAAACACTTCCCTGGGCTCTTCGTTGGCCTCGGTTCCTTGATGCTTCGGCACCCATGAGCGCACAGGGGGGGGACCCTGCGACAGTCCGCCAAGAGGAAAATCCTTCGGGTGACCTCGTGCGCAACCCAATCCCTTCTTCTTCCACATGGCGTGTCTGTGGTGCATGCTGTG
As to B4, the Expression turned out to be 7.84E+04.

B5: Pegivirus K (nucleic acid)
DNA: AGAATGGTGTGATCCGTCGCCGCTCCAGCGGAAAGCGGGCGGGATCTAGTGGTTAGGGTTGTTCGCGTAAATCCCACACTAGTGGTACGCTCGTATAACGTGGGAGCAGCCGGTGGGGTCGACCCCCCACCTGGCGGCTGCTGAGCACCGGACGAAGCGCGGGGGGTGAACGCTAACCCGCGGCCCGGGCTGCCAACGTTAGGCACGTCTTGGCTGGAAGACGTTAAACACAGGGCCCCCCCTCAACCCTGATCCGAGGCCAGAGACCAAGGTACGCCGCCCTTTTAAAGGCGTTACTCGTCCAATAGGATCTCTCCGGCGGGTTGTCAAACCTTGCTGGCCCTGGTGATGGTTACGGGAGGGGGTGGGGCGGGGAGTAGAAGCCCCGCCCGGCATGGGGGTACCAAGCTCGGCACGCCCAGCACGCGTGGCGTAGGGGAAAAATCCTTCGGGTGACCCCTGGTACCATAAAGTAATTAACATGAGCATGCCGCTAGGGTGTGCTTTTTCTTCCTTCCTTGGGAAGGCGGTGGCACC
modifications: Pegivirus K
For the molecule B5, the Expression is given as 8.07E+04.

B6: Rodent pegivirus (nucleic acid, listed as Pegivirus sp.)
DNA: GGACTTCGGTCCCCCTGTTACTCTGCGAGCCACCGCAGAGCCAGGGTTGGTACGCCCGAGGTGTTAGACCCCGGCCGAAAGCTCCTAACCATGGGGTTAGTAGGACGTGGTAAATGCCACTGAGGGGTTGGAGAGCTGGTAGAGCGAGTAAGTCGGCGTAAGGCCCGAGTACGGGCCTCCCAGCCCGGGTCAGCCTAAACCTGGCTGTGATACCCGGTGCATGGAGGGCGTGTCCCAACGCTCGATCGCTGTAGGGTGGGTCCCTGCAGTTGGGTGTGGCTACCCTGCTCGTACTGCTTGATAGAGTCCCGGCGGACGGACCAGCTCTCGTCAGTCCGTGGAGTTGCAC
B6 yielded an Expression of 1.79E+05.

B7: Human pegivirus isolate JD2B8C (nucleic acid, listed as Pegivirus sp.)
DNA: TGGTCACCTTGGTAGCCACTATAGGTGGGTCTTAAGAGAAGGTTAAGATTCCTCTTGTGCCTGCGGCGAGACCGCGCACGGTCCACAGGTGTTGGCCCTACCGGTGTGAATAAGGGCCCGACGTCAGGCTCGTCGTTAAACCGAGCCCATTTCCCGCCTGGGCAAACGACGCCCACGTACGGTCCACGTCGCCCTTTTAATGTCTCTCTTGACCAATAGGTTCATCCGGCGAGTTGACAAGGACCAGTGGGGGCCGGGGGTCACAGGGATGGACCCTGGGCCCTGCCCTTCCCGGCGGGGTGGGGAAAGCATGGGGCCACCCAGCTCCGCGGCGGCCTGCAGCCGGGGTAGCCCAAGAACCTTCGGGTGAGGGCGGGTGGCATTTTTCTTCCTATACCGATC
Molecule B7 registered an Expression of 5.36E+05.

B8: Pegivirus I (nucleic acid)
DNA: AGAATGGTCTAAGTGGTTGCCACCGTGGTCCGAAGGGGAGGAGGACCTACGCTGCCAGGGTTGGCAGGTCGTAAATCCCGGGTGTAGGAGATCCCTCCTTGTTAGGACTGCTGGTAGCTGGGGGGTCGGTGACCCCCTGGGCAACCGCCAAACCCGGACGACCGGGTGGCGGCTCCATGTTGGCACGGTCCACAGGTGTGAACCCTACCGGTGTGAATAAGGGTTGGTGGTTGCGGTCCACCTTAAACGTAGTATGCATTGGGCTTGGTAAAACACCGCTCGTAGTACGGAACGCCGCCTTTAAAGACACAGTAGGCGTAGCCGGCGGGTTGACAATCCATACGGGGGGTGGGGTGTGGTCATGGATCTGTCCACACCACCTTCATGCGGCCCTCTAAGCAAGCCATACCGGGGGGAGGCGCGCGGCACCGCACTGCCGGGCAAGGGGAAGAACCTTCGGGTGACCCCCCCCCAACCACCGTCCGATCAATGCTAATGTTGCGTTTAGGCGTGACACCGGCACA
modifications: Pegivirus I
As for B8, the Expression is recorded as 8.02E+04.

B9: Sakobuvirus A FFUP1 (1x mut) (nucleic acid)
DNA: TCACGCGCTTTTCCGGTGGTCACCCACCGTTAGGGAGCGCCAGCGTTCGCGCTTCCGCTACCAGGTGACACACTCCTTTCCCCTCCCCCATTCCCGTTCCCATCCTCTGGACTGGTTTCTCCTCACGATTGACCAGCAGCTGGGAGCTGTTACCAGACGTTGGACAGTAAGTCCCGGATGCACTATAGGGCTGGTGGCTAGTGCTTGGTAAGCACTCAACGCCATACCTAATGTGTACCTCGGCTTGCCCTCCTGGTCGTGGTGACCGGCTGTTTCTCTTCCCTTGGCTCCAGACGGGCTGGTGTCCTACCACCACCGTTGCATGCAGACCTCCCCCTGCGCACTCGAACGCCCTGTCCCAGCAGGGTTAGTATGTGCTGTGCAGATCTGCATGTGACACCCCATCCACTGGTAGAGCAGGAAGTTGCCCTAGCTAACGCGGCAAGTATTACTTTCCGCTACACGTCCTTGAGATTCCTCGGACCTCTGGAACTAGGGTGACTGTGGGCTTGGGAAAACCCACCTTGGTCCTGTACTGCCTGATAGGGTCGCGGCTGGCCGACCAGTGGATGTAGCCAGTTGTTTTGGGAT
For the molecule B9, the Expression is 8.82E+06.

B10: Simian pegivirus (nucleic acid, listed as Pegivirus sp.)
DNA: GGGGAATCTCACCCCCCGTCCGGTTCCGGAAGAATCGGAAACCGACACCCTGACCAATCATTCTTGATCATAGAGTGGATGTTAGTGAAAGCCAGACGAAAGCCGGCGGATGGGTGGTGACAGGGTTGGTAGGTCGTAAATCCCGGCCACCCTGGTACCCGGTATAAGTTGGGCGGAAGCTGACTGAAGCTCCGTGCTCTTTTCTGTGCGTTCTTGGTGCACGGTCCACAGGTGACGCCTATACCGGTGTGAATAATAGGCCGACTCGAGCGGAGTCGTTAAACTGAGAACCTCCATACGGATGGCAACTTGGCTTGCGTACGGGGACGCCGCTAAAGTCACAGTGGGTTAAGTCCGGCGGGTTGACAACCCCAGCAAGGCGAGGGGGTCCTATTGTTGGACTCTGCCAGTTCCCGGTGGAGGTAGGCATGGGGTGGCCCAGCTCCGCGGCGCGCTACAGCCGGGGTAGCCCAAAATCCGAAAGGTGAGGGCGGGCCACATGTCCGAAATTTAGTCAAGC
Take B10: the Expression came out at 8.56E+04.

B11: Pestivirus giraffe-1 (nucleic acid, listed as Pestivirus sp.)
DNA: GTATACGAGTTTAGCTCAATCCTCGTATACAATATTGGGCGTCACCAAATATAGATTTGGCATAGGCAACACCCCGATGCGAAGGCCGAAAAGGGCTAACCATGCCCTTAGTAGGACTAGCAAAAAATCGGGGACTAGCCCAGGTGGTGAGCTTCCTGGATGACCGAAGCCCTGAGTACAGGGCAGTCGTCAACAGTTCAACACGCAGAATAGGTTTGCGTCTTGATATGCTGTGTGGACGAGGGCATGCCCACGGTACATCTTAACCTATCCGGGGGTCGGATAGGCGAAAGTCCAGTATTGGACTGGGAGTACAGCCTGATAGGGTGTTGCAGAGACCCATCTGATAGGCTAGTATAAAAAACTCTGCTGTACATGGCAC
B11 displayed an Expression of 4.72E+05.
